Source: patent US20160264649A1

Experiments:
Assay in all cases: cell-based or functional assay
[1] = target: HIV-1 Env of isolate MGRM-D-028 (subtype D) (HIV-1)
[2] = target: HIV-1 Env of pseudovirus isolate MGRM-G-025 (subtype G) (HIV-1)
[3] = target: HIV-1 Env of pseudovirus isolate MGRM-G-016 (subtype G) (HIV-1)
[4] = target: HIV-1 Env of isolate 92UG046 (subtype D) (HIV-1)
[5] = target: HIV-1 Env of pseudovirus isolate MGRM-G-027 (subtype G) (HIV-1)
[6] = target: HIV-1 Env of isolate MGRM-F1-023 (subtype F) (HIV-1)
[7] = target: HIV-1 Env of pseudovirus isolate MGRM-G-009 (subtype G) (HIV-1)
[8] = target: HIV-1 Env of pseudovirus isolate MGRM-G-017 (subtype G) (HIV-1)
[9] = target: HIV-1 Env of isolate MGRM-F1-006 (subtype F) (HIV-1)
[10] = target: HIV-1 Env of pseudovirus isolate MGRM-G-006 (subtype G) (HIV-1)
[11] = target: HIV-1 Env of isolate MGRM-F1-020 (subtype F) (HIV-1)
[12] = target: HIV-1 Env of isolate MGRM-D-014 (subtype D) (HIV-1)
[13] = target: HIV-1 Env of pseudovirus isolate MGRM-G-019 (subtype G) (HIV-1)
[14] = target: HIV-1 Env of isolate MGRM-F1-010 (subtype F) (HIV-1)
[15] = target: HIV-1 Env of isolate MGRM-F1-004 (subtype F) (HIV-1)
[16] = target: HIV-1 Env of pseudovirus isolate MGRM-G-015 (subtype G) (HIV-1)
[17] = target: HIV-1 Env of isolate MGRM-F1-013 (subtype F) (HIV-1)
[18] = target: HIV-1 Env of isolate MGRM-D-012 (subtype D) (HIV-1)
[19] = target: HIV-1 Env of isolate MGRM-D-029 (subtype D) (HIV-1)
[20] = target: HIV-1 Env of isolate 92UG024 (subtype D) (HIV-1)
[21] = target: HIV-1 Env of isolate 98CN009 (subtype CRF07_BC) (HIV-1)
[22] = target: HIV-1 Env of isolate MGRM-D-018 (subtype D) (HIV-1)
[23] = target: HIV-1 Env of isolate MGRM-D-004 (subtype D) (HIV-1)
[24] = target: HIV-1 Env of pseudovirus isolate MGRM-G-024 (subtype G) (HIV-1)
[25] = target: HIV-1 Env of isolate MGRM-D-008 (subtype D) (HIV-1)
[26] = target: HIV-1 Env of isolate MGRM-F1-012 (subtype F) (HIV-1)
[27] = target: HIV-1 Env of isolate MGRM-D-021 (subtype D) (HIV-1)
[28] = target: HIV-1 Env of isolate MGRM-D-022 (subtype D) (HIV-1)
[29] = target: HIV-1 Env of isolate MGRM-F1-015 (subtype F) (HIV-1)
[30] = target: HIV-1 Env of isolate MGRM-F1-022 (subtype F) (HIV-1)
[31] = target: HIV-1 Env of isolate MGRM-D-002 (subtype D) (HIV-1)
[32] = target: HIV-1 Env of isolate MGRM-F1-014 (subtype F) (HIV-1)
[33] = target: HIV-1 Env of isolate MGRM-F1-017 (subtype F) (HIV-1)
[34] = target: HIV-1 Env of isolate MGRM-D-019 (subtype D) (HIV-1)
[35] = target: HIV-1 Env of pseudovirus isolate MGRM-G-028 (subtype G) (HIV-1)
[36] = target: HIV-1 Env of pseudovirus isolate MGRM-G-001 (subtype G) (HIV-1)
[37] = target: HIV-1 Env of isolate MGRM-D-020 (subtype D) (HIV-1)
[38] = target: HIV-1 Env of pseudovirus isolate MGRM-G-004 (subtype G) (HIV-1)
[39] = target: HIV-1 Env of pseudovirus isolate MGRM-G-013 (subtype G) (HIV-1)
[40] = target: HIV-1 Env of isolate MGRM-D-011 (subtype D) (HIV-1)
[41] = target: HIV-1 Env of isolate MGRM-F1-021 (subtype F) (HIV-1)
[42] = target: HIV-1 Env of isolate MGRM-F1-016 (subtype F) (HIV-1)
[43] = target: HIV-1 Env of isolate MGRM-D-026 (subtype D) (HIV-1)
[44] = target: HIV-1 Env of isolate MGRM-F1-018 (subtype F) (HIV-1)
[45] = target: HIV-1 Env of pseudovirus isolate MGRM-G-011 (subtype G) (HIV-1)
[46] = target: HIV-1 Env of isolate MGRM-D-016 (subtype D) (HIV-1)
[47] = target: HIV-1 Env of isolate MGRM-F1-008 (subtype F) (HIV-1)
[48] = target: HIV-1 Env of pseudovirus isolate MGRM-G-014 (subtype G) (HIV-1)
[49] = target: HIV-1 Env of isolate MGRM-D-024 (subtype D) (HIV-1)
[50] = target: HIV-1 Env of isolate MGRM-D-005 (subtype D) (HIV-1)
[51] = target: HIV-1 Env of isolate 98CN006 (subtype CRF08_BC) (HIV-1)
[52] = target: HIV-1 Env of isolate 92UG005 (subtype D) (HIV-1)
[53] = target: HIV-1 Env of isolate 92UG001 (subtype D) (HIV-1)
[54] = target: HIV-1 Env of isolate MGRM-D-013 (subtype D) (HIV-1)
[55] = target: envelope of aMLV pseudovirus (negative control)
[56] = target: HIV-1 Env of isolate MGRM-D-003 (subtype D) (HIV-1)
[57] = target: HIV-1 Env of isolate MGRM-D-001 (subtype D) (HIV-1)
[58] = target: HIV-1 Env of isolate 92UG114 (subtype D) (HIV-1)

B1: PGT-130 (antibody, V domains shown)
VH: QVQLQESGPGLVKPAETLSLTCSVSGESINTGHYYWGWVRQVPGKGLEWIGHIHYTTAVLHNPSLKSRLTIKIYTLRNQITLRLSNVTAADTAVYHCVRSGGDILYYYEWQKPHWFSPWGPGIHVTVSS
VL: QSALTQPPSASGSLGQSVTISCNGTSSDIGGWNFVSWYQQFPGRAPRLIIFEVNKRPSGVPGRFSGSKSGNSASLTVSGLQSDDEGQYFCSSLFGRWDVVFGGGTKLTVL
With B1 the IC50 (neutralization) [1] was 0.825 µg/mL, the IC50 [2] was 8.45 µg/mL and the IC50 [3] was > 50 µg/mL. The IC50 (neutralization) [4] was > 50 µg/mL, the IC50 [5] was 4.14 µg/mL and the IC50 (neutralization) [6] was 0.05 µg/mL. The IC50 [7] was > 50 µg/mL, the IC50 [8] was > 50 µg/mL and the IC50 (neutralization) [9] was > 50 µg/mL. For the same binder, the IC50 [10] was > 50 µg/mL, the IC50 (neutralization) [11] was 9.73 µg/mL and the IC50 (neutralization) [12] was 0.061 µg/mL. The IC50 [13] was 27.9 µg/mL, the IC50 (neutralization) [14] was > 50 µg/mL and the IC50 (neutralization) [15] was 0.023 µg/mL. For the same binder, the IC50 [16] was > 50 µg/mL, the IC50 (neutralization) [17] was > 50 µg/mL and the IC50 (neutralization) [18] was > 50 µg/mL. The IC50 (neutralization) [19] was > 50 µg/mL, the IC50 (neutralization) [20] was > 50 µg/mL and the IC50 (neutralization) [21] was 0.136 µg/mL. It also gave an IC50 (neutralization) [22] of 0.049 µg/mL, an IC50 (neutralization) [23] of 1.21 µg/mL and an IC50 [24] of 5.84 µg/mL. The IC50 (neutralization) [25] was > 50 µg/mL, the IC50 (neutralization) [26] was > 50 µg/mL and the IC50 (neutralization) [27] was 0.156 µg/mL. The IC50 (neutralization) [28] was > 50 µg/mL, the IC50 (neutralization) [29] was > 50 µg/mL and the IC50 (neutralization) [30] was > 50 µg/mL. The IC50 (neutralization) [31] was 0.869 µg/mL, the IC50 (neutralization) [32] was 11.8 µg/mL and the IC50 (neutralization) [33] was > 50 µg/mL. For the same binder, the IC50 (neutralization) [34] was > 50 µg/mL, the IC50 [35] was 0.074 µg/mL and the IC50 [36] was 0.0198 µg/mL. For the same binder, the IC50 (neutralization) [37] was 24.7 µg/mL, the IC50 [38] was > 50 µg/mL and the IC50 [39] was > 50 µg/mL. For the same binder, the IC50 (neutralization) [40] was 0.019 µg/mL, the IC50 (neutralization) [41] was > 50 µg/mL and the IC50 (neutralization) [42] was > 50 µg/mL. For the same binder, the IC50 (neutralization) [43] was > 50 µg/mL, the IC50 (neutralization) [44] was > 50 µg/mL and the IC50 [45] was > 50 µg/mL. For the same binder, the IC50 (neutralization) [46] was > 50 µg/mL, the IC50 (neutralization) [47] was 0.065 µg/mL and the IC50 [48] was 2.23 µg/mL. The IC50 (neutralization) [49] was > 50 µg/mL, the IC50 (neutralization) [50] was > 50 µg/mL and the IC50 (neutralization) [51] was 0.258 µg/mL. For the same binder, the IC50 (neutralization) [52] was 0.959 µg/mL, the IC50 (neutralization) [53] was > 50 µg/mL and the IC50 (neutralization) [54] was 0.429 µg/mL. For the same binder, the IC50 [55] was > 50 µg/mL, the IC50 (neutralization) [56] was 0.651 µg/mL and the IC50 (neutralization) [57] was > 50 µg/mL. For the same binder, the IC50 (neutralization) [58] was > 50 µg/mL.
